Laboratory results published in the supplement of paper PMC12455559.

Experiment: purified protein yield per well (BCA); higher = higher soluble expression
Method in brief: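 Each candidate enzyme was grown in E. coli C41(DE3) in a 2 mL autoinduction culture (100 µg/mL kanamycin; 2 h at 37 °C, then 40 h at 18 °C) and purified robotically via Ni-charged magnetic beads with SUMO protease cleavage. Purified protein yield per well was assessed using the Pierce Rapid Gold BCA kit. Readings below 25 ug (0.1 mg/mL) are beneath the detection threshold.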

Question: Which “purified protein yield per well” value does the source give for “MFSASTFAYNPAPPPPSPTPTPTPGPLPGQPNDGFQRGPNPSVSLLEAERGPFSVRNARVSSSVRGFGGGTIYYPTGTTGTMGAIVVIPGYVSPESSIAWWGPKMASHGFVVMTIATNRTTDQPSSRATQINAALDYLISQNSTSGSPVRNMIDTDRLGVMGWSMGGGGTLRVASQNRLKAAIPLAPYDTISFRNVDAPTLIFGCESDTVAPVRNHASPFYNQIPAGTDKAFVELNGGSHTCANGGNQYNDVLSRLGVSWMKRHLDNDTRYSQFLCGPNHTSDRDISEYRGNCPY [DP070]” here?
Answer: < 25 µg

Question: For “LTLDDLKKDGPYAVSSQTIPGSGFGKGTIYSPNAAGKYALVAVVPGFVSAESSMTEISKRLATHGFVVVTIGTKTLLDFPSSRASQLLAALKAASAVTTGPVAGKIDVTRQVVSGWSMGGGGTLEAAASTPGLKAAVAYAPWNLSSTKYKAITVPSAIIGGTADTVASVSAHSQPFYNAIPATTRKLLGVIQGADHFFPNKAVDPASYTNIAWVKRFADGNTAYAPFLAGQDAAWASFVSTGPF [ESM087]”, which “purified protein yield per well” value is on record?
Answer: < 25 µg

Question: For “GGGGGGGGGGNSGDLPAPNPCTANCGFEIGPNPSLSFLRNGPGPLPVSTTTVPRSVDGFGGGTIYYPSNVSREMAAITISPGFTARQGGVAWWGSALASHGFVVMTIDTNSRFDQPASRGRQLDSALSYLISESDRRNSPISGLVDESRLATMGHSMGGGGSLHSASRNRISAAMPLAPWNQSGSGAFNNINVPTMILACESDTTARVGTHAIPFYNRIPNSTDKVYLEINNGNHSCSTGRSGNDRALLRTYGVSWMKRFLDKDGRYNQFLCGPNHTANSSISDFRDTCVF [DP063]”, which “purified protein yield per well” value is on record?
Answer: < 25 µg

Question: For “ADNPYERGPAPTNSSIEATRGPFAVSDTRVSSLVSGFGGGTIYYPTSTSSGTFGAVVISPGFTGTQSSIDWLGPRIASQGFVVFTIDTITIYDQPDSRASQLLAALDYLTQRSDVRSRIDASRLGVMGHSMGGGGTLRAAAQRPSLQAAIPLTGWHTTKNWSSVSVPTLVIGAESDSVAPVATHSEPFYTSLPSTLDKAYLELNNASHFAPNLPDTTIAKYSISWLKRFIDNDTRYEQFLCPGPGRSTQVEEYRNTCPNS [TEP025]”, which “purified protein yield per well” value is on record?
Answer: < 25 µg

Question: Which “purified protein yield per well” value does the source give for “QTTAPTSSSLNATAGPYSVSTSSVTLPVGFGGGTVYYPTQTGKYGVIAISPGFTATQSSIAWLGRRLATHGFVVLTMNTLTTLDQPASRANQLMAALNYVLNSSPSAVRSRADGTRTAVAGHSMGGGGSLIAARDYPTLKASYPMTPWSPTSNFSTVRVPTMIIGADGDTIAPVATMSRVYYQNLPSTTSKAYGELNNATHFAPNMTNTPIGRYAVTWMKRFVDSDTRYSPFLCGAPHQAYATSLVFDRYSQNCPY [ESM083]” here?
Answer: < 25 µg

Question: With “QTSAPTSASLNATAGPLSVSTASVLVPVGFGGGTIYYPTVAGQYGVIAISPGFTATQSSIAWLGRRIATHGFVVITLNTNTTLDQPDSRATQLLAALRYVTNSSGTAVRSRIDATRLAVAGHSMGGGGSLIAARDNPTLKASYPLTPWNISTNFSTVRVPTLIIGADGDTIAPVASHARPFYASLPSTTFKAYGELNNATHFTPNSTSTPIGRYGVAWFKRFLDGDTRYSPFLCGAQHTAYATALVFDRYNQNCPY [ESM141]” as the sequence, how does the “purified protein yield per well” value read?
Answer: < 25 µg

Question: Which “purified protein yield per well” value does the source give for “QTNPYERGPAPTTSSLEASRGPFSYQSFTVSRPSGYRAGTVYYPTNAGGPVGAIAIVPGFTARQSSINWWGPRLASHGFVVITIDTNSTLDQPDSRSRQQMAALSQVATLSRTSSSPIYNKVDTSRLGVMGWSMGGGGSLISARNNPSIKAAAPQAPWSASKNFSSLTVPTLIIACENDTIAPVNQHADTFYDSMSRNPREFLEINNGSHSCANSGNSNQALLGKKGVAWMKRFMDNDRRYTSFACSNPNSYNVSDFRVAACN [ESM158]” here?
Answer: < 25 µg

Question: With “CGLCKAQTCDTLTLDSIYDPGAYSFATLLESDGIRNGPDYAGATIYYPTNGIPPYPAIAICPGHSTFEYTIQAWGPFYASHGIVTITIGTNSIYDYPDARKNAILDALETVRQENVRSGSPLFGYLDLSRLAVSGWSMGGGGAQLAAAADTTIKAVVGLCPWLESWRTAADLNHPVPTLILSGQIDAIAPPYYHADVHYGYIP [TEP133]” as the sequence, how does the “purified protein yield per well” value read?
Answer: < 25 µg

Question: With “MRSSVTQVPACKGAETSEARPRTGSRPVGLRAVVVAVVAGLIAALVSAQPVSARPAPARPGAAQDNPYERGPDPTVGSVAAQRGTFATAEMNVSPGNGFNGGKIYYPTDTSQGTWGAVAAVPGFTARWAAEGAWMGHWLASFGFVVIGIDTNSPNDYDTARGTQLLAALDYLTQKSPVRDRVDPDRLGVIGHSMGGGGAISAAVRRPSLKAAVPLAPFSPSQDLSTLRVPTMIMGARDDGTVTPSYLDGLYARTPAATQSAFIELTSGGHGFPTWGNSHVTRRMIPWLKIFIDNDTRYTQFLCPSPADRSNISRWQTKCPYVPPGGTTPPPSGGQVVGAGSARCLDVPSQTNGTQVRLWDCLDRAGQKWTRTEAAELRVHGGKCLDAEASGTSPGTRVVIWDCHGGQNQRWNIGTNGTITSTRSGLCLDAYNSGTANGTQVVLWNCNGGANQRWTFR [DP042]” as the sequence, how does the “purified protein yield per well” value read?
Answer: < 25 µg

Question: With “MQVARDGSAFQSPPETSGGIRSWRPTGRLWQRGVAAVAAAATLGALTIALTAVQPAAGAENPYQRGPDPTPASVSANRGTFATAQVSVPAGNGFGGGVIYYPTDTSQGKFGAIAIVPGYTATWAAEGAWMGPWLASFGFVVIGIDTNTRNDWDNARGQQLLAALDYLTQRSSVRDRVDATRTAVMGHSMGGGGAAYASLQRPSLKTSIGLAPASFSQNLTTTKVPTMLLSGQNDTTVSPASVLSLYNGIPAGVEKAYLELSNVGHLFPTSNNPTMMRNIIPWFKIFIDSDTRYTQFLCPLSNTTGIRSYQSTCPLVPSTPPTTTTTTTTTSTTTTTDTTTTTTDTTTTTTDSTTSTTTTTPGSGPSCTAAYTVVNQWGGGFQAEVRVAAGSTPISGWTVTWAWANGQTVTQQWSATITSSGPNVTAVNVGYNGNLGAGAATTFGFIASVNGANTPPTLACAAR [ESM022]” as the sequence, how does the “purified protein yield per well” value read?
Answer: < 25 µg

Question: With “ATTTLLAESFDNGFGVFSAQGYASTDNGVAVLRGGSADGTITSGAVPAAGQTNLTLSWTQTTSRLDAGESLVVEWSTGSSWSSLSSERSSGVLSVGLPTAAASNALQLRFRVDASSYYERVDVDDVVLTAGDGGGSGNPYAKGPDPTWNSIEATTGPFEVDDYDISSFAADGFGGADVYYPSDAGSATFGGIAISPGYTASRSTVTWLGPRIASQGFVVIVIDTNSRYDQPASRGDQLLAALDQLVNDSDVSHLVDPNRLAVMGHSMGGGGSLEAADDRPSLRAIVPLQGWNSDKTWSQVQVPALLIGGENDSVAPDSSHSQRFYDSLGGEKVYLQLNNASHFASNSPNTTIASYSIAWLKRWVDEDTRYSQFVCGPDAGQGSAISDYRTTCPV [DP065]” as the sequence, how does the “purified protein yield per well” value read?
Answer: < 25 µg

Question: Which “purified protein yield per well” value does the source give for “ATVTPIRMETRIRTSSFTRFTSTPTACAFDSPIAKAFSSVRSRIDASRLAVAGHSMGGGGTLEAAKDRPGLRAAVPLAPWNTTKNWSGNRVPTLIIGGQSDTIAAVSSHAVPFYTSLPTTPDKAYLELAGASHFFPQSANADVAMMFVSWLKRFVDGDTRYEQFLCPGPSVSGSVSRYSSTCPLASGPTPTSTTTATTGTSTTRTTTTSSGGSGGGACSASYATSNAWQGGFVGTVTVRADLALSGWQVTLALPAGTTITGSWNGVRSGSTGTVQVRNETYNGILASGQTTSFGFQGSGSPSGLTVTSCTAN [ESM108]” here?
Answer: < 25 µg

Question: With “YRPVVAFRVKVRKLERAIGESMASVARMQGRYLRASTLTAVAAATIVGCYLRGPDPTVELVESPVGPFEVETVLVPSTVDGFGGGEIYDPVDEDYSFGGIAVVPGVGIDRSRLEWYGPRLASHGFVVFLIETDSVWDVPDQRGEQLIAALDYMTTQSAVVDVVDPKRLAVMGYSFGGGGVIHATRLKPDLKAAIPLAMWFWDNDQSASTVPHLLISCEIDFENDAHTGAVYESRPASTARAMMEIAGADHQCIKQDGSTEQQ [TEP130]” as the sequence, how does the “purified protein yield per well” value read?
Answer: < 25 µg

Question: Which “purified protein yield per well” value does the source give for “CGDRDAGDPAPTESSLTAPLGPEKYRTEVVPRAYVEAFGGGTIYYPAGRPPGERLGAVTIVPGSRGYQSGMAWYGPLLASRGFIVFTIDTLHLKDQPAKRSLELEAALTYLATRSAVASHVDAERLAVMGHSLGGGGTLDLAATRPNLKAAIPLMPYDKAKDFSNVRVPTLVVAAQHDKIAPVGKHAEVFYRSIPASQPKAYLEIAGATHSFPKRRDATLAKYVIAWLKRYVDGDKRYDRFLCPGPQNDPHVARYASDCTPR [DP095]” here?
Answer: < 25 µg

Question: With “ATTAGTFGGVAISPGYTASESTIAWLGPRIASQGFVVITFNTNSRYDQPASRGDQLLAALDYLTGSSAVRARVDASRLAVMGHSMGGGGALEAAKDRPSLQAAIPLTGWNTDKTWPEVRTPTLVIGAENDSVAPVGSHSIPFYNSLTSAPERAYLELNNASHFAPNSPNTDIASSSIAWLKRYVDDDTRYTQFLCPGPSVSAFGSVSDYRATCPM [TEP154]” as the sequence, how does the “purified protein yield per well” value read?
Answer: < 25 µg

Question: Which “purified protein yield per well” value does the source give for “FRSRGATIFYPEEPSHPLASIVIVPGWSSSERSIRAWGPFLASHGMVTMTIGTNNPPRDFPEQRAAALLDAIATLRAENARDTSPIFEKLDLSRIAVGGWSMGGGGAQLAAVQDPALKAAIGLCPWHEAPDIFEHTVPLLIIGGEKDRRAPFNEHGLVHYCTTPPATPKLLFEVRDAGH [TEP100]” here?
Answer: < 25 µg

Question: For “MPGDALTDPWQNGRSDDGERGDTRRLHHIVRPVDLGGLSTEAEGHPLVLGFASDAGVRRNRGRPGAAEGPAAIRRMLSNLAAHELQTLLDAGDITCEGEALEAAQQACALALAKALSLGAFPVLLGGGHEIAVASFMGLRRYLDDQGDAGKVLVLNIDAHLDLRTSRPPSSGTPFDEIARYCEAHGHAWRYACIGVSKPSNTAALFARADEIGQAPTATNIYGNGSFSVASSSISPLVSGFGGGVVYYPTAPGLYPVVAVSPGFTATWSSISWIGPRLASWGFVVVGIETNTLLDQPSSRGQQLLAALNWAVSSSAPSAVRSRADGTRRGVAGHSMGGGGSLEALAMDTTGNVKAAVPIAPWNTDKTWNNVNEPVLIVGGQWDTVAPVATHSIPFYNTLAGPKAYVELNNATHFFPQFDDAMTSRALVAWFKRWLNNDTRFTPFTCGFSGLSISDFRSNAC [TEP180]”, which “purified protein yield per well” value is on record?
Answer: < 25 µg

Question: For “ADNPFERGPDPSESSIEAYRGAYSVSEQSVSRWVSGFGGGTIHYPTTRSDGTFGAVVVSPGYTGTESSISWLGPRLASQGFVVLTMVTNSIYDYPDSRARQLQAALDYLTSSSSGVADRIDPDRLALMGHSMGGGGTLRAVSENPDIKAAIPMTPWHTDKTWREVTTPTLIFGAENDTVAPHYSHAEPFYDSLPSSLEKVYLELDGASHFAPNYSNTTIAKYSISWLKRFVDDDTRYSQFLCPGPSFWDGDVQTYESTCDF [TEP197]”, which “purified protein yield per well” value is on record?
Answer: < 25 µg

Question: With “MAAGGLVAAQAAGAQAAPAQAAAANPYERGPAPTEASIEAARGSYAVSQTTVSSLSVSGFGGGTVYYPTSTSDGTFGAVVISPGYTAYQSSIAWLGPRLASQGFVVFTIDTLTTLDQPDSRGRQLLAALDYLTQSSSVRTRIDSSRLGVMGHSMGGGGTLEAAKSRPSLQAAIPLTGWNLDKTWPEIKTPTLIVGADGDTIAPVATHSEPFYESLPSSLDKAYLELNGATHFTPNSSNTTIAKYSISWLKRFIDNDTRYEQFLCPLPRPSLTIDEYRGNCPHTS [TEP052]” as the sequence, how does the “purified protein yield per well” value read?
Answer: < 25 µg
